Assay results published in the DeepSol protein solubility set.

experiment: soluble on expression in E. coli; label from the status in PepcDB or PDB records

Row | Sequence | soluble on expression in E. coli
1 | MGHHHHHHSHMSSRGHSTLPRTLMAPRMISEGDIGGIAQITSSLFLGRGSVASNRHLLQARGITCIVNATIEIPNFNWPQFEYVKVPLADMPHAPIGLYFDTVADKIHSVSRKHGATLVHCAAGVSRSATLCIAYLMKFHNVCLLEAYNWVKARRPVIRPNVGFWRQLIDYERQLFGKSTVKMVQTPYGIVPDVYEKESRHLMPYWGI | not soluble
2 | MSLVLLYTPKQKTKNVQTITADILDLDYQGLGVAKINGKTWFIENALPHEKVECRILEDKRQYGHAIVKKWRVKSPERLEPKCAHFMRCGGCQGQHIPIEMQRKAKESALFKRLSKLQSEPISFQPMICGDAWAYRRRVRLSLWFNPSTKQIEMGFRQKNTNDLIPVQSCEVAEPAINYLLPKLTALLEKFSAPKQLGHIELVAADNGVAMLLRYTKNLAEIDRTLLLKFAEQEKLMLFLQSDKGIEQIYGDAPYYQFSDGIKLHFDIRDFIQVNSALNEPMVNTALDWLELSQQDCVLDLFCGMGNFTLPLAKRVKSAVGIEGVFEMVQKAAQNAERNQIKNIEFFQADLDQSFVEQPWANQSFNKILLDPPRSGAAFALNALCELKAEKILYVSCNPATLVRDAEILCNFGYKIEKSAVIDMFPHTGHLESITLFTTKEGHHHHHH | soluble
3 | MIAYRSNQGVTRQRQQTKVFKLVSTYDKVAVKNAIRAAYRQVFERDLEPYIINSEFTALESKLSNNEINVKEFIEGLGTSELYMKEFYAPYPNTKVIEMGTKHFLGRAPLNQKEIQQYNQILASQGLKAFIGAMVNGMEYLQTFGEDTVPYRRFPTLPALEHHHHHH | not soluble
4 | MALEFTTLPQLYAHDYDTVIDVRSPAEFAEDHLPGAINLPVLDNEERARVGTIYKQQSPFLARKLGAALVFRNAASHVEQSLSHHEGHWRPLVYCWRGGQRSGSFTWMLQQIGWRAEVVSGGYRTYRRLVNRYLYEDPLPHRLVALDGFTGTAKTEILARLPALGVQMLDLEALANHRGSLLGARPGGQPEQKAFESALAAALCRLDPTRPVVVEAESSRIGERILPPSLWAALCAAPRIEIEAPVAARSAYLTAAYDDILSDAETLTARLDPLRYHRGHAVVEGWLALVAAGDKHGVTRALMEQHYDPAYRKSRASHAVQVAARLRSDTLDHAGIDTLTAQVAAVLKAL | not soluble
5 | MAHHHHHHMTLGPTTRVTVNVTGTVTVPLHLNALESLDDAPLQEEIMREAVRLSLAEQLGGFDNFTVTSARKGGNHVCEARLDVGDLCSIIADVKNAYEHGERRLRELQQLITAIREQLKESGREGGSEDEDITVPGIVKVVSDMVEDALRGPGESSLSAAIREVSNDKSWLEEVPVGDRSGGAASKSDEDSPSGVGYTRLPDSGEDSNGSERQLE | soluble
6 | MSLSLALQYFKALSDETRLRLIHVLNRHELSVNELVSILEMGQSRVSRHLKILTGAGLLTSRRDGLWVFYSAAAEGDGRAFLDAVTPFVTTDMVLQADLDMAQKIIEERALKTRQFFNAIAEDWDELNREVLGGFDLAGAVAEAMPQCETAVDLGCGTGSVIERMLQRSQQVIGVDGSPRMLELARRRFVEGAERVSLRIGELDHLPLRDGEADFASINMVLHHLSDPGVALGEIRRVLRLGGQLMVTDFDRHDNERMRSDYGDRWLGFEGVQLEGLLREAGFTVRECRRQGVAKGLALHLMLAEKTQEGHHHHHH | soluble
7 | AEVEHYEPLQVHVQLEKVYLDGDVSIEHKHEKVFSMDDFWAAYAGWTLVEQKKGYVLFRKQMDDISPLSKVNGYIGVSDNGVISTFHGRPEPASEPIQSFFQIDLERLESHMQKNLLKGIPFRTKAEFEDVIEHMKTYSG | soluble
8 | MPNQVLFCITKMRYEEKRIYHYLEESGLSIKIMLDSSNLDEVVAHNSDYCLCIVRVMSQHRAFRIAEYMEALGIPTLNSSRAIQICADKAIQALILANRDVIKQPHFSILRNYEDLSNFNGKMVVKPVSSSWGRGISLIENEDALTTWKISHQELDIQNQNLPYLIQEFIDKPNYDVRIVIINTKPVVAFKRVSANNWKTNTHLGATVVPIVIDDSINKIVTEIIKVVGPGIYGLDLMKNRQNEWIFCEINQNPEFAHSWKIHHVDVAEKIAQYVSSKVKVGQKNASTHLEHHHHHH | not soluble
9 | MKIVAITSCPNGIAHTYMAQEKLEQVAKEMGVDIKVETQGGVGAENVLTTQDIEEADGVIIAADKQVDLSRFVGKRLINENVREGIHNPRGLIQRIINQDAPIYQSETN | not soluble
10 | MTVLEAVLEIQAITGSRLLSMVPGPARPPGSCWDPTQCTRTWLLSHTPRRRWISGLPRASCRLGEEPPPLPYCDQAYGEELSIRHRETWAWLSRTDTAWPGAPGVKQARILGELLLV | not soluble
11 | RLPFMAQYDRLGLTRSNTSCHNNTGKQCLWGDTEKQPELLVLGDSHADHYKTFFDAVGKKEKWSATMVSADACAYVEGYASRVFQNWAACRAVYRYAEEHLPRYSKVVLAMRWGSQMPENSRSLAYDAGFFQKFDRMLHKLSSEKQAVYLMADNLASSYNVQRAYILSSRIPGYRQALRPDDESTLKANARIRELAAKYPNVYIIDAAAYIPADFQIGGLPVYSDKDHINPYGGTELAKRFSEKQRFLDTRHNH | not soluble
12 | MHHHHHHSSGRENLYFQGTFAERYNIVCMLGKGSFGEVLKCKDRITQQEYAVKVINKASAKNKDTSTILREVELLKKLDHPNIMKLFEILEDSSSFYIVGELYTGGELFDEIIKRKRFSEHDAARIIKQVFSGITYMHKHNIVHRDLKPENILLESKEKDCDIKIIDFGLSTCFQQNTKMKDRIGTAYYIAPEVLRGTYDEKCDVWSAGVILYILLSGTPPFYGKNEYDILKRVETGKYAFDLPQWRTISDDAKDLIRKMLTFHPSLRITATQCLEHPWIQKYSSETPTISDLPSLESAMTNIRQFQAEKKLAQAALLYMASKLTTLDETKQLTEIFRKLDTNNDGMLDRDELVRGYHEFMRLKGVDSNSLIQNEGSTIEDQIDSLMPLLDMDGSGSIEYSEFIASAIDRTILLSRERMERAFKMFDKDGSGKISTKELFKLFSQADSSIQMEELESIIEQVDNNKDGEVDFNEFVEMLQNFVRNE | soluble
13 | MDAEEKMGVELSSPSAIMEHARRLYMSKDYRSLESLFGRCLWKSYNLDLWMLYIEYVRKVSQKKFKLFEVYEFTLGQFENYWDSYGLFKEYIEELGKIEDEQTRIEKIRNGYMRALQTPMGSLSELWKDFENFELELNKITGKKIVGDTLPLFQSSFQRYQQIQPLIRGWSVKNAARLIDLEMENGMKLGGRPHESRMHFIHNYILDSFFYAEEVYFFYSEYLIGIGQKEKAKKVVERGIEMSDGMFLSLYYGLVMDEEAVYGDLKRKYSMGEAESAEKVFSKELDLLRINHLNYVLKKRGLELFRKLFIELGNEGVGPHVFIYCAFIEYYATGSRATPYNIFSSGLLKHPDSTLLKEEFFLFLLRIGDEENARALFKRLEKTSRMWDSMIEYEFMVGSMELFRELVDQKMDAIKADAILPPLPPREHNVQMEGILGRYHCFLDSFNFLDLKIRDNSRLLDEFMENLPKISQQNNVLSNLRVEKVISLLKSVQ | soluble
14 | MDLSSLEIFRAVAHEASVTRAAQRLQRAQSNVTTRIRQLEEDLGVELFLRDGKRMSLTERGSEFLAYAEQLLALADEARQSMHPAEPGGRLRLGSMESTAASRLPALLASYHKACPRVALEVSTGTSHALFDGVRARRLDCALVAAGPGWAGELDGSGLRGEPLFREELLMILPAEHPPVHDVAEVRLRTLAGFARGCTYRQLAEDSLGTPLTVQEVGSYHAILACVAAGACVGVLPRSVLQLLGTPPLRSLPLAEVDTWLVWREGYATAAFERWRGVLGQAGD | not soluble
15 | MGSSHHHHHHGGTGENLYFQGGSGGTCPSISQSEVGIVETCGRFSYTADPGIHCLWCGSVLVRRVTLRLQEYELKVESKTKDNVFVTLSLVIQYQVSPDKLAEVYYACDSSLQCMRDYVLNSIRAKIPLYKLEALYVERGTISQQLKDEVDAIIGTYGIEIVSALISDIDPGAEITKAMNEVQKFQRLRVASVDAAETEKLKRVRAAEARCEARRLSGEGLAEQRKAIVAGLMHSIEDVQSEVRDLTSNDATNMLLMNQYYDTLQAIAANSSSSVIMLESNGGLEKVAAQLRQGVTHMMR | not soluble
16 | MSLSRNSDLHMHSTASDGGYSPTELMEKCHQANLKFVALTDHDTVNGIEEAKQTAHRLGFILIPGIELSTKASGQSVHMLGYGIDWKNDTLKRRLDRQQDIRKQRLEQILLKLKAAGVPLEQDAVLRYADGGAIGRPHVAKALMDKGYVRSVQEAFEHYLAEGRPCYVKRQEYISVEQAIAWIHQAGGVAIVAHPGYYDLDDQLIGWVREYGLDGIEVYHRDHSREVVAHYEQLCKRMEAETGRRLLRTGGSDFHHESYGRTAAPLGTTRIPDQLTYELLHDLERKKTRAEGHHHHHH | soluble
17 | MSLNYSHAFHAGNHADVLKHIVLLALLDGLVRKETPFFVLDSHAGRGRYLLSAGESRNTREAESGVMRLIARPQRLEVIKRYVDVVQADNVSQTRAASTPMHISRYPGSSLLAAQVCRAQDRMVFCELHPKEAAALNALFVHDPRVRVHAGDGYAAVRAFLPPKVGTQRIGRGLVFIDPPYEAQDAEYPLVLGALRETLTRWPQAICAVWYPIKQRRRLQPFFRKAVGLPVRSVLIAELLVRLDDSPLRLNGSGMLLLNVPWQFDQLLAPALPVLKTQLGESGARTRLEWLKVPQEGHHHHHH | not soluble
18 | MSSVAVLTQESFAEHRSGLVPQQIKVATLNSEEESDPPTYKDAFPPLPEKAACLESAQEPAGAWGNKIRPIKASVITQVFHVPLEERKYKDMNQFGEGEQAKICLEIMQRTGAHLELSLAKDQGLSIMVSGKLDAVMKARKDIVARLQTQASATVAIPKEHHRFVIGKNGEKLQDLELKTATKIQIPRPDDPSNQIKITGTKEGIEKARHEVLLISAEQDKRAVERLEVEKAFHPFIAGPYNRLVGEIMQETGTRINIPPPSVNRTEIVFTGEKEQLAQAVARIKKIYEEKKKKTTTIAVEVKKSQHKYVIGPKGNSLQEILERTGVSVEIPPSDSISETVILRGEPEKLGQALTEVYAKANSFTVSSVAAPSWLHRFIIGKKGQNLAKITQQMPKVHIEFTEGEDKITLEGPTEDVSVAQEQIEGMVKDLINRMDYVEINIDHKFHRHLIGKSGANINRIKDQYKVSVRIPPDSEKSNLIRIEGDPQGVQQAKRELLELASRMENERTKDLIIEQRFHRTIIGQKGERIREIRDKFPEVIINFPDPAQKSDIVQLRGPKNEVEKCTKYMQKMVADLVENSYSISVPIFKQFHKNIIGKGGANIKKIREESNTKIDLPAENSNSETIIITGKRANCEAARSRILSIQKDLANIAEVEVSIPAKLHNSLIGTKGRLIRSIMEECGGVHIHFPVEGSGSDTVVIRGPSSDVEKAKKQLLHLAEEKQTKSFTVDIRAKPEYHKFLIGKGGGKIRKVRDSTGARVIFPAAEDKDQDLITIIGKEDAVREAQKELEALIQNLDNVVEDSMLVDPKHHRHFVIRRGQVLREIAEEYGGVMVSFPRSGTQSDKVTLKGAKDCVEAAKKRIQEIIEDLEAQVTLECAIPQKFHRSVMGPKGSRIQQITRDFSVQIKFPDREENAVHSTEPVVQENGDEAGEGREAKDCDPGSPRRCDIIIISGRKEKCEAAKEALEALVPVTIEVEVPFDLHRYVIGQKGSGIRKMMDEFEVNIHVPAPELQSDIIAITGLAANLDRAKAGLLERVKELQAEQEDRALRSFKLSVTVDPKYHPKIIGRKGAVITQIRLEHDVNIQFPDKDDGNQPQDQITITGYEKNTEAARDAILRIVGELEQMVSEDVPLDHRVHARIIGARGKAIRKIMDEFKVDIRFPQSGAPDPNCVTVTGLPENVEEAIDHILNLEEEYLADVVDSEALQVYMKPPAHEEAKAPSRGFVVRDAPWTASSSEKAPDMSSSEEFPSFGAQVAPKTLPWGPKR | soluble
